Drawing on publication PMC5338832 (PLoS Pathogens, 2017), this text covers Kd, koff and kon for 4 molecules.

Test [1] concerns the target T1, T117v2 epitope-scaffold (synthetic construct (designed scaffold …)).
T1 construct: also called T117v2 scaffold; scaffolded MPER construct; source: expressed and purified as previously described [35]
T1 chain: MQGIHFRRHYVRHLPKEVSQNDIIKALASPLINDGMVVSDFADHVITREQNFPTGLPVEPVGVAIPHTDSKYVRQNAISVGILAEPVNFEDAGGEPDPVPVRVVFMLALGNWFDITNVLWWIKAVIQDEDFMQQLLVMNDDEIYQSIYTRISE
Put plainly: SPR; ProteOn XPR36, GLC chip with amine-coupled capture antibody (Human Antibody Capture Kit) for ligand capture; 1x HBS-EP+ pH 7.4 with 1 mg/ml BSA; Langmuir model; Table 1 heads the IgGs as 'Analyte'. To be noted: both partners purified.

The target in test [2] is T1, T117v2 epitope-scaffold. The test can be described thus: SPR. The note with it: both partners purified.

Changes are numbered by the printed parent chain.

B1: 10E8 IgG mutant 3 (antibody, V domains shown)
VH: EVQLVESGGGLVKPGGSLRLSCSASGFDFDNAWMTWVRQPPGKGLEWVGRITGPGEGWSVDYAAPVEGRFTISRLNSINFLYLEMNNLRMEDSGLYFCARTGKYYDFWSGYPPGEEYFQDWGRGTLVTVSS
VL: SYELTQETGVSVALGDTVTITCEGDSLESHYASWYQKKPGQAPILLFYGDDNRPSGVPDRFSGDADGNEASLTIDGAQAEDDAEYYCSSRDKSGSRLSVFGGGTKLTVL
notes: IgG; also called 10E8 mut 3; copies: 2 + 2
In test [1], B1 displayed a dissociation constant (Kd) of 379 pM, a koff of 0.000211 s⁻¹ and an on-rate (kon) of 559000 M⁻¹ s⁻¹.

B2: 10E8 IgG mutant 2 (antibody, V domains shown)
VH: B1 VH
VL: B1 VL with D50K, D51N, D64S, D66S, D75S
notes: IgG; also called 10E8 mut 2; copies: 2 + 2
For B2, in test [2], the Kd was 16.4 pM, the off-rate constant (koff) came to 4.6e-05 s⁻¹ and the kon stood at 2.8e+06 M⁻¹ s⁻¹.

B3: 10E8 IgG mutant 5 (antibody, V domains shown)
VH: B1 VH
VL: B1 VL with D16R, E23R, E28A, Y31A, D50K, D51N, D64S, D66S, E69R, D75S
notes: IgG; also called 10E8 mut 5; copies: 2 + 2
On to B3, for which, in test [1], the affinity, expressed as Kd, was 123 pM; the koff stood at 0.00016 s⁻¹; the association rate constant (kon) worked out at 1.3e+06 M⁻¹ s⁻¹.

B4: 10E8 IgG mutant 1 (antibody, V domains shown)
VH: B1 VH
VL: B1 VL with D16Q, E23Q, E28R, D50K, D51N, D64S, D66S, E69T, D75S
notes: also called 10E8 mut 1; copies: 2 + 2
Take B4: in test [1], the equilibrium dissociation constant (Kd) was determined as 11.2 pM, the dissociation rate constant (koff) worked out at 4e-05 s⁻¹ and the kon worked out at 3.57e+06 M⁻¹ s⁻¹.
